Tests used:
[1] = biological target: T1, human LILRB1 protein (Octet analyte) (human, UniProt Q8NHL6 24-458, limits assumed); assay: Octet (BLI), off rate ranking, kdis
T1 construct: The construct used in the Octet assay is not described; also called hLILRB1

[2] = biological target: T2, human LILRB2 protein (Octet analyte) (human, UniProt Q8N423 22-460, limits assumed); assay: Octet (BLI), off rate ranking, kdis
T2 construct: The construct used in the Octet assay is not described; also called hLILRB2

[3] = biological target: T3, human LILRB1 expressed on CHOK1 cells (human, UniProt Q8NHL6 24-650); assay: flow cytometry (FACS) binding to CHOK1-hLILRB1 cells
T3 construct: whole, on cells; also called CHOK1-hLILRB1; CHOK1-LILRB1

[4] = biological target: T4, human LILRB2 expressed on CHOK1 cells (human, UniProt Q8N423 22-597); assay: flow cytometry (FACS) binding to CHOK1-hLILRB2 cells
T4 construct: whole, on cells; also called CHOK1-hLILRB2; CHOK1-LILRB2

[5] = biological target: T3, human LILRB1 expressed on CHOK1 cells; assay: cell based RBA on CHOK1-hLILRB1 cells, flow cytometry; competitor HLA-G
[6] = biological target: T4, human LILRB2 expressed on CHOK1 cells; assay: cell based RBA on CHOK1-hLILRB2 cells, flow cytometry; competitor HLA-G
human LILRA4 = biological target: T5, human LILRA4 (human, UniProt P59901 24-446); assay: ELISA, OD450, antibody at 200 nM; + = 2-fold over ISO
T5 construct: bought protein coated for ELISA; also called hLILRA4

human LILRB4 [7] = biological target: T6, human LILRB4 (human, UniProt Q8NHJ6 22-259); assay: as above
T6 construct: bought protein coated for ELISA; also called hLILRB4

human LILRA2 [8] = biological target: T7, human LILRA2 (human, UniProt Q8N149 24-449); assay: as above
T7 construct: bought protein coated for ELISA; also called hLILRA2

human LILRB3 = biological target: T8, human LILRB3 (human, UniProt O75022 24-443); assay: as above
T8 construct: bought protein coated for ELISA; also called hLILRB3

human LILRB1 = biological target: T9, human LILRB1 (human, UniProt Q8NHL6 24-458, limits assumed); assay: Octet off-rate ranking;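 further: antibody dissociation rate constants against cynomolgus LILRB2 plus human LILRB1, LILRB2, LILRA1 and LILRA2, measured on an Octet instrument to rank binding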
T9 construct: also called hLILRB1

human LILRA1 [9] = biological target: T10, human LILRA1 (human, UniProt O75019 17-461, limits assumed); assay: Octet off-rate ranking;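 further: antibody dissociation rate constants against cynomolgus LILRB2 plus human LILRB1, LILRB2, LILRA1 and LILRA2, measured on an Octet instrument to rank binding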
T10 construct: also called hLILRA1

human LILRA2 [10] = biological target: T11, human LILRA2 (human, UniProt Q8N149 24-449, limits assumed); assay: Octet off-rate ranking;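 further: antibody dissociation rate constants against cynomolgus LILRB2 plus human LILRB1, LILRB2, LILRA1 and LILRA2, measured on an Octet instrument to rank binding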
T11 construct: also called hLILRA2

Biotinylated LILRB1 [11] = biological target: T12, Biotinylated LILRB1 (UniProt Q8NHL6 24-458, limits assumed, biotinylated (sites not given)); assay: epitope binning ELISA, coated 1 ug/ml; competitor 15G8 at 20 ug/ml
Biotinylated LILRB1 [12] = biological target: T12, Biotinylated LILRB1; assay: epitope binning ELISA, coated 1 ug/ml; competitor LK-RB1-9 at 20 ug/ml
Biotinylated LILRB1 [13] = biological target: T12, Biotinylated LILRB1; assay: epitope binning ELISA, coated 1 ug/ml; competitor LK-RB1-12 at 20 ug/ml
Biotinylated LILRB1 [14] = biological target: T12, Biotinylated LILRB1; assay: epitope binning ELISA, coated 1 ug/ml; competitor LK-RB1-16 at 20 ug/ml
Biotinylated LILRB1 [15] = biological target: T12, Biotinylated LILRB1; assay: epitope binning ELISA, coated 1 ug/ml; competitor LK-RB1-31 at 20 ug/ml
Biotinylated LILRB1 [16] = biological target: T12, Biotinylated LILRB1; assay: epitope binning ELISA, coated 1 ug/ml; competitor LK-RB1-33 at 20 ug/ml
Biotinylated LILRB1 [17] = biological target: T12, Biotinylated LILRB1; assay: epitope binning ELISA, coated 1 ug/ml; competitor LK-RB1-47 at 20 ug/ml
Biotinylated LILRB1 [18] = biological target: T12, Biotinylated LILRB1; assay: epitope binning ELISA, coated 1 ug/ml; competitor hz73D1.v1 at 20 ug/ml
human LILRA1 [19] = biological target: T13, human LILRA1 (human, UniProt O75019 17-461, limits assumed); assay: ELISA, 200 nM antibody, OD450; + = 2-fold over ISO
T13 construct: Bought protein; also called hLILRA1

human LILRA2 [20] = biological target: T14, human LILRA2 (human, UniProt Q8N149 24-449); assay: ELISA, 200 nM antibody, OD450; + = 2-fold over ISO
T14 construct: Bought protein; also called hLILRA2

human LILRA1 [21] = biological target: T15, human LILRA1 (human, UniProt O75019 17-461, limits assumed); assay: ELISA, antibody at 200 nM, OD450; + = 2-fold over ISO
T15 construct: Bought protein; also called hLILRA1

human LILRA3 = biological target: T16, human LILRA3 (human, UniProt Q8N6C8 24-439); assay: as above
T16 construct: Bought protein; also called hLILRA3

human LILRA5 = biological target: T17, human LILRA5 (human, UniProt A6NI73 42-268, limits assumed); assay: as above
T17 construct: Bought protein; also called hLILRA5

human LILRB4 [22] = biological target: T18, human LILRB4 (human, UniProt Q8NHJ6 22-259); assay: as above
T18 construct: Bought protein; also called hLILRB4

human LILRA2 [23] = biological target: T19, human LILRA2 (human, UniProt Q8N149 24-449); assay: as above
T19 construct: Bought protein; also called hLILRA2

T4 sequence (Q8N423 22-597): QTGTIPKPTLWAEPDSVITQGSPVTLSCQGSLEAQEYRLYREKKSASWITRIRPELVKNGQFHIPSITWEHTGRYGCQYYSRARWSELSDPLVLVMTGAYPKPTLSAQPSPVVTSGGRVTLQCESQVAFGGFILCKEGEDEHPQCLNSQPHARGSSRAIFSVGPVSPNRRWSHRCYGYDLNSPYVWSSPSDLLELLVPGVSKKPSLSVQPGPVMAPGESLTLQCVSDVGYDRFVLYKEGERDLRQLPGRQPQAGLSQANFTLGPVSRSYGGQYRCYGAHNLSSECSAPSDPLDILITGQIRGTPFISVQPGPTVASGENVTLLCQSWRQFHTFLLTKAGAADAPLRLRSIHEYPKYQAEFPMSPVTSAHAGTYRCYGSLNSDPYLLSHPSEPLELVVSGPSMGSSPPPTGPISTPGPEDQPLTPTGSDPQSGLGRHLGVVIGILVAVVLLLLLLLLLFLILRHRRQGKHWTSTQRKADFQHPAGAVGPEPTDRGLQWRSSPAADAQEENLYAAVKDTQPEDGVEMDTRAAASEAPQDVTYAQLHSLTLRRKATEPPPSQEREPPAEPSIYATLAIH
T12 sequence (Q8NHL6 24-458 limits assumed): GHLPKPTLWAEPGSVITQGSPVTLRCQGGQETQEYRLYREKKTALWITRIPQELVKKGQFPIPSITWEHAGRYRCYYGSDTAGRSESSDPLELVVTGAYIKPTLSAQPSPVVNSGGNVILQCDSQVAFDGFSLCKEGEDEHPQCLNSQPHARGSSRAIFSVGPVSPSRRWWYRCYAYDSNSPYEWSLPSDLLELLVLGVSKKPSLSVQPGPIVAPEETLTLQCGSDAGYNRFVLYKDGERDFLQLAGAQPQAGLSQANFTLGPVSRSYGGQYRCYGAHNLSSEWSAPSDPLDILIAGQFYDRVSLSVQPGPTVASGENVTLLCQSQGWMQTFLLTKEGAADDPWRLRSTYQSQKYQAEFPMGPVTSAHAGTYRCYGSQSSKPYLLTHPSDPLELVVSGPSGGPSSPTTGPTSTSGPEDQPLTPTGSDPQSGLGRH
T3 sequence (Q8NHL6 24-650): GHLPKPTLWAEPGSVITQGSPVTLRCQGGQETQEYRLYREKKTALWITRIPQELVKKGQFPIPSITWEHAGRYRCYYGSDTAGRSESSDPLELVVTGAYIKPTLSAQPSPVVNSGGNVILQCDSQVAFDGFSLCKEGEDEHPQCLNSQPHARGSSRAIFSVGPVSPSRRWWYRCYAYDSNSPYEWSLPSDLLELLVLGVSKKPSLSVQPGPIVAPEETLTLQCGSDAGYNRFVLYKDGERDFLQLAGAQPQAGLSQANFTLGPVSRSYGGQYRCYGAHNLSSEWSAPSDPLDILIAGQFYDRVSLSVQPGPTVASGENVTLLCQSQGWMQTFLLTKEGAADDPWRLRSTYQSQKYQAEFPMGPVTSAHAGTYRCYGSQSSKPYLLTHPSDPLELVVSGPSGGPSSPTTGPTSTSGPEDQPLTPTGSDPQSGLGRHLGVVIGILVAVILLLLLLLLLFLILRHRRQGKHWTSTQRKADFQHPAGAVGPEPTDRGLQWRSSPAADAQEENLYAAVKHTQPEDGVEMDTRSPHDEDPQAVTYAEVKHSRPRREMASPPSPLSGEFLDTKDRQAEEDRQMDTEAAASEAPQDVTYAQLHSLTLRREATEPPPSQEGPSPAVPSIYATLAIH
T1 sequence (Q8NHL6 24-458 limits assumed): as the sequence (Q8NHL6 24-458 limits assumed) above
T9 sequence (Q8NHL6 24-458 limits assumed): as above
T2 sequence (Q8N423 22-460 limits assumed): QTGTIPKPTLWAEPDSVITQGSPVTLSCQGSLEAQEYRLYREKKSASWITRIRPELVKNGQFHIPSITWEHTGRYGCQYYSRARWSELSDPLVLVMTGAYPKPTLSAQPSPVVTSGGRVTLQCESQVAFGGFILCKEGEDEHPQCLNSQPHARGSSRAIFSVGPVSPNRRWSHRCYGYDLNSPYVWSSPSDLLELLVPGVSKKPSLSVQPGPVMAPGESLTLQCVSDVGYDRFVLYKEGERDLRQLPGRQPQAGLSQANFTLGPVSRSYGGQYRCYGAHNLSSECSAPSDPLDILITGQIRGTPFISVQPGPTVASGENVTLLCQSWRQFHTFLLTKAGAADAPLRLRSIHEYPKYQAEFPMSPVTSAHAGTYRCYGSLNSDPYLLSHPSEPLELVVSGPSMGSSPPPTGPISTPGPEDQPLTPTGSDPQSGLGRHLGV
T11 sequence (Q8N149 24-449 limits assumed): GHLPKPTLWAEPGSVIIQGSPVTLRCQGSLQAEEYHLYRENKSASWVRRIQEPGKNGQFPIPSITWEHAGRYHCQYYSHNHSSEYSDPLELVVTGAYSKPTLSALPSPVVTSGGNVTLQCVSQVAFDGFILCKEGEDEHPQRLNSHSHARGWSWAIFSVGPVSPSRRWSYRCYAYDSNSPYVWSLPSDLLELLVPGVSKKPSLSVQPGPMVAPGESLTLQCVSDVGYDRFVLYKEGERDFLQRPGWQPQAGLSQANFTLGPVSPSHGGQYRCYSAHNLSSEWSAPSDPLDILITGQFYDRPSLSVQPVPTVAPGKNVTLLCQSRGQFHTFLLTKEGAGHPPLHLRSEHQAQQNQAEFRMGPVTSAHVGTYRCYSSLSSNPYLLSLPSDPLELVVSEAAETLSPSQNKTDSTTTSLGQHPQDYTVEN
T5 sequence (P59901 24-446 limits assumed): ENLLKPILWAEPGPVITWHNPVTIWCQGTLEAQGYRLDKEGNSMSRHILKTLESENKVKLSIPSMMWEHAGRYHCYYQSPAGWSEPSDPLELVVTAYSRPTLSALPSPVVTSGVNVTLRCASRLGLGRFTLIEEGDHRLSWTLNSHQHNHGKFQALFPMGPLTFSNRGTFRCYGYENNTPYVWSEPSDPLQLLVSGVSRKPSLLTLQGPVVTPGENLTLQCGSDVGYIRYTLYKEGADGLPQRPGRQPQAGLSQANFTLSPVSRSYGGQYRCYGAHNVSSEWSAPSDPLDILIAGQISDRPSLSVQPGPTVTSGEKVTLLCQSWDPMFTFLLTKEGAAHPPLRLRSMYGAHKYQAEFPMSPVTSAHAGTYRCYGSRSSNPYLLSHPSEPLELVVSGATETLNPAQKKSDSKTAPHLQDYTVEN
T17 sequence (A6NI73 42-268 limits assumed): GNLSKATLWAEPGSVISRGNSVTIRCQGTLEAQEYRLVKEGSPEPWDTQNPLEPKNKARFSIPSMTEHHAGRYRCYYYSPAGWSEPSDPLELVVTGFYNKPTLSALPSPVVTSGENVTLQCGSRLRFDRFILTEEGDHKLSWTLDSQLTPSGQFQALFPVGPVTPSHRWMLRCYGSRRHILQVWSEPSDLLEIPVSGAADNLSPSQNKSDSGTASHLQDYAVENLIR
T16 sequence (Q8N6C8 24-439 limits assumed): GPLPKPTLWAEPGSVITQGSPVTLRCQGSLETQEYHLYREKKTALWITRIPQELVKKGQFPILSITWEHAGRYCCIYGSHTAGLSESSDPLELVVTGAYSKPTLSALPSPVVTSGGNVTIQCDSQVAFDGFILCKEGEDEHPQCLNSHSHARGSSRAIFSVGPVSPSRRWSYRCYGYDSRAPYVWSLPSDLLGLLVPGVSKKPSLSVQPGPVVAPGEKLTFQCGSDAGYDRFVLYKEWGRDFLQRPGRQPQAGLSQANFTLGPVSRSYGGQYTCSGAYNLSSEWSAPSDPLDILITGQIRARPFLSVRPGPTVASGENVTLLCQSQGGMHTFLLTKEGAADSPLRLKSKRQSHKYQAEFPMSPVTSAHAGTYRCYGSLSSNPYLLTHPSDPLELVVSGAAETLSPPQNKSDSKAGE

B1: LK-RBi-05 (bispecific antibody, human IgG4 S228P, kappa)
heavy: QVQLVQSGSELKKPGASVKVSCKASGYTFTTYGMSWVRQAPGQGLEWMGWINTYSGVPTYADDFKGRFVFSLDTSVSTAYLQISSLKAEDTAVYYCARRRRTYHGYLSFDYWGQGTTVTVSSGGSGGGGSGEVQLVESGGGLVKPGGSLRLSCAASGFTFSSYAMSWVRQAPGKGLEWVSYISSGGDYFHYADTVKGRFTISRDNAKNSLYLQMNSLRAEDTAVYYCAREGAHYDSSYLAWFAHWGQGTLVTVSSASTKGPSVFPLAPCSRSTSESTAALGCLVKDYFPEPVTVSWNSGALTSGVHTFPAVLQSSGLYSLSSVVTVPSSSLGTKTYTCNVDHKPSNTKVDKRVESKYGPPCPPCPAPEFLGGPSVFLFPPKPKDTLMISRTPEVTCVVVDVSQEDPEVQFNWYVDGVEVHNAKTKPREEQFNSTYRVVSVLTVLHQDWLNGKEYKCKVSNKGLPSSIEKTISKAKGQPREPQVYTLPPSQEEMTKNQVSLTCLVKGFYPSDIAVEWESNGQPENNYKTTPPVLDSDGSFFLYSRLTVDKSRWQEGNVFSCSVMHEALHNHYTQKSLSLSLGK
light: DIQMTQSPSSLSASVGDRVTITCETSENIYGALNWYQQKPGKAPKLLIYGATNLAEGVPSRFSGSGSGTDFTFTISSLQPEDIATYYCQNVLNTPWTFGGGTKLEIKGGSGGGGSGDIQMTQSPSSVSASVGDRVTITCRASENIYSNLAWYQQKPGKAPKLLIYAATNLAEGVPSRFSGSGSGTDYTLTISSLQPEDFATYYCQQFWDNPLTFGQGTKLEIKRTVAAPSVFIFPPSDEQLKSGTASVVCLLNNFYPREAKVQWKVDNALQSGNSQESVTEQDSKDSTYSLSSTLTLSKADYEKHKVYACEVTHQGLSSPVTKSFNRGEC
With B1 the koff [1] was 0.00021 s⁻¹, the koff [2] was 8.24e-06 s⁻¹ and the EC50 [3] was 2.32 nM. For the same binder, the EC50 [4] was 0.73 nM, the EC50 [5] was 4.2 µg/mL and the EC50 [6] was 0.43 µg/mL.

B2: LK-RB1-1 (antibody, human IgG4 S228P, kappa, V domains shown)
VH: QIQLVQSGPELKKPGETVKISCKASGYSFTNFGMSWVKQAPGKALKWMGWINTYSGVPTYADDFKGRFAFSLETSANTAYLQINNLKNEDSATYFCARRRRTFDGYLCFDYWGQGATLTVSS
VL: QLVLTQSSSASFSLGASAKLTCTLSSQHSTYSIDWYQQQPLKPPKYVMELKTDGSHRTGDGIPDRFSGSSSGADRYLSISNIQPEDEAIYICGVGDTIKEQFVYVFGGGTKVTVLR
notes: anti-LILRB1 antibody
B2: binds (human LILRA4); binds (human LILRB4 [7]).

B3: LK-RB1-5 (antibody, human IgG4 S228P, kappa, V domains shown)
VH: QVQLQQPGAELVKPGASVKLSCKASGYTFTDFWIHWVKQRPGQGLEWIGMIHPNSGSTNFNEKFRAKATLTVDKSSSTAYMRLSSLTSEDSAVYYCARSGDGYSNPMDYWGQGTSVTVSS
VL: QIVLSQSPAILSASPGEKVTLTCRASSSVSYMHWYQQKPGSSPKPWIYATSNLASGVPVRFSGSGSGTSYSLTISRMQTEDAATYYCQQWRRSPYTFGGGTKLEIKR
notes: anti-LILRB1 antibody
B3: binds (human LILRA2 [8]); binds (human LILRB3).

B4: LK-RB1-9 (antibody, human IgG4 S228P, kappa, V domains shown)
VH: QIQLVQSGPELKKPGETVKISCTASGYTFTTYGMSWVKQAPGKGLKWMGWINTYSGVPTYADDFKGRFAFSLETSASTAYLEINNVKNEDTATYFCARRRRTYHGYLCFDYWGQGTTLTVSS
VL: DIQMTQSPVSLSASVGETVTITCETSENIYGALNWYQRKQGKSPQLLIYGATNLADGMSSRFSGSGSGRQYSLEISSLHPDDVASYYCQNVLNTPWTFGGGTKLEIKR
With B4 the koff (human LILRB1) was 0.000162 s⁻¹, the koff (human LILRA1 [9]) was 0.000155 s⁻¹ and the koff (human LILRA2 [10]) was 0.000885 s⁻¹. For the same binder, the Inhibition % (Biotinylated LILRB1 [11]) was 48.6%, the Inhibition % (Biotinylated LILRB1 [12]) was 73.9% and the Inhibition % (Biotinylated LILRB1 [13]) was 92.1%. It also gave an Inhibition % (Biotinylated LILRB1 [14]) of 21.9%, an Inhibition % (Biotinylated LILRB1 [15]) of 10.2% and an Inhibition % (Biotinylated LILRB1 [16]) of 67.4%. It also gave an Inhibition % (Biotinylated LILRB1 [17]) of 89.1% and an Inhibition % (Biotinylated LILRB1 [18]) of 88.1%.

B5: LK-RBi-08 (bispecific antibody, human IgG4 S228P, kappa)
heavy: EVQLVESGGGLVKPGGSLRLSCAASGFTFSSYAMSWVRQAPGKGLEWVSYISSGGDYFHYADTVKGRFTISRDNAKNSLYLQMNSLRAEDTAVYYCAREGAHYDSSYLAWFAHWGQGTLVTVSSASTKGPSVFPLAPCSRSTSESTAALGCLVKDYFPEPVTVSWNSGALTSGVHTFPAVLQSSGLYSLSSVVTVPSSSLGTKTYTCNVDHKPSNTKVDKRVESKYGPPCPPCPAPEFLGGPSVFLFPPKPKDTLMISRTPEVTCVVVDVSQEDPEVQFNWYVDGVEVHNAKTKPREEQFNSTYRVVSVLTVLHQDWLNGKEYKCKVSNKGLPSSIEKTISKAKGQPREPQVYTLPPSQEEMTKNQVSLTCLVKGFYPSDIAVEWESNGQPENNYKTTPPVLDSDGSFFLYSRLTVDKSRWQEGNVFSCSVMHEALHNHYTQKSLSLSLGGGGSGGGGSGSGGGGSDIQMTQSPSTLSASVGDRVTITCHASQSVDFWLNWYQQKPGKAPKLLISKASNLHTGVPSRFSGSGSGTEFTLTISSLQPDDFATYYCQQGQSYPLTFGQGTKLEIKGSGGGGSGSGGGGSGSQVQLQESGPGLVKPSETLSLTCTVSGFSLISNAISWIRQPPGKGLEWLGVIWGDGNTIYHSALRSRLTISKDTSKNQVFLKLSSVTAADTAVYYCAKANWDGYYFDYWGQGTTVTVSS
light: DIQMTQSPSSVSASVGDRVTITCRASENIYSNLAWYQQKPGKAPKLLIYAATNLAEGVPSRFSGSGSGTDYTLTISSLQPEDFATYYCQQFWDNPLTFGQGTKLEIKRTVAAPSVFIFPPSDEQLKSGTASVVCLLNNFYPREAKVQWKVDNALQSGNSQESVTEQDSKDSTYSLSSTLTLSKADYEKHKVYACEVTHQGLSSPVTKSFNRGEC
Work on B5 yielded a koff [1] of 0.000166 s⁻¹, a koff [2] of 5.68e-05 s⁻¹ and an EC50 [3] of 2.66 nM. For the same binder, the EC50 [4] was 0.37 nM, the EC50 [5] was 6.03 µg/mL and the EC50 [6] was 0.28 µg/mL.

B6: 15G8 (antibody, human IgG4 S228P, kappa, V domains shown)
VH: DVQLQGSGPGLVKPSETLSLTCSVTGYSITSGYYWNWIRQFPGKKLEWMGYISYDGSNNYNPSLKNRITISRDTSKNQFSLKLNSVTAADTATYYCAHGYSYYYAMDAWGQGTSVTVSS
VL: DIQMTQSPSSLSASVGDRVTITCRTSQDISNYLNWYQQKPGKAVKLLISYTSRLHSGVPSRFSGSGSGTDYTLTISSLQPEDFATYYCQQGNTLPTFGQGTKLEIKR
Work on B6 yielded a koff (human LILRB1) of 0.00389 s⁻¹, a koff (human LILRA1 [9]) of 0.000278 s⁻¹ and a koff (human LILRA2 [10]) of 0.00117 s⁻¹. For the same binder, the Inhibition % (Biotinylated LILRB1 [11]) was 73%, the Inhibition % (Biotinylated LILRB1 [12]) was 92.1% and the Inhibition % (Biotinylated LILRB1 [13]) was 3.58%. It also gave an Inhibition % (Biotinylated LILRB1 [14]) of -0.72%, an Inhibition % (Biotinylated LILRB1 [15]) of -0.67% and an Inhibition % (Biotinylated LILRB1 [16]) of 90.5%. For the same binder, the Inhibition % (Biotinylated LILRB1 [17]) was 13.5% and the Inhibition % (Biotinylated LILRB1 [18]) was -0.56%.

B7: LK-RB2-41 (antibody, human IgG4 S228P, kappa, V domains shown)
VH: EVQLQLSGPELVKPGASVKMSCKASGYTFTDYNMHWVKQSHGKSLEWIGYINPNNGGTTYNQKFKGKATLTVNKSSSTAYMELRSLTSEDSAVYYCARAPYYGSSYLLAYWGQGTLVTVSA
VL: DIVMTQSHKFMSTSVGDRVSITCKASQDVSTAVAWYQQKPGQSPKLLIYSASYRYTGVPDRFTGSGSGTDFTFTISSVQAEDLAIYYCQQHYSIPWTFGGGTKLEIKR
B7: binds (human LILRA1 [19]); binds (human LILRA2 [20]).

B8: LK-RB2-8 (antibody, human IgG4 S228P, kappa, V domains shown)
VH: QIQLVQSGPELKKPGETVKISCKASGYSFASYGMGWVKQAPGKGLKWLGWINTHSGVPTYADDFKGRFAFSLETSASTAYLQINNLKNEDTATYFCAHYGRPWFPYWGQGTLVTVSA
VL: DIQMTQSPASLSASVGETVTITCRTSENIYSYLAWYQQKQGKSPQLLVYNAKSLAEGVPSRFSGSGSGTQFSLRINSLQPEDFGTYYCQQHYETPLTFGAGTKLELKR
B8: binds (human LILRA1 [21]); binds (human LILRA3); binds (human LILRA5). B8: binds (human LILRB4 [22]).

B9: LK-RB2-10 (antibody, human IgG4 S228P, kappa, V domains shown)
VH: EVMLVESGGDLVKPGGSLKLSCAASGFTFSANTVSWLRRTPERRLEWVATISGGSDNTYCPDSVKGRFTISRDNARDTLYLQMSSLTSEDTALYFCARHYYDGPNWYFDVWGPGTTVTVSS
VL: DIVMTQSQKFMSSTGGDRVTITCKASQNVDTAVAWYQQKPGQSPKLLIYSASNRYIGVPDRFKGSGSGTDFSLTITNIQSEDLAEYFCQQYSSYPLTFGAGTKLELKR
B9: binds (human LILRA2 [23]).

— patent publication US20260234247A1 (published 2026)
